Results taken from US20250109186A1.
Like-named read-outs stand apart in the source and are kept apart here.

Legend:
[1] = molecular target: SARS-CoV-2 Omicron BA.1 spike ectodomain (residues 14-1207) with C-terminal His tag (SARS-CoV-2 Omicron BA.1 subvariant)
[2] = molecular target: SARS-CoV-2 Omicron BA.1 RBD (residues 316-526) with C-terminal His tag (SARS-CoV-2 Omicron BA.1 subvariant)
[3] = molecular target: SARS-CoV-2 Omicron XBB.1.5 spike ectodomain (residues 14-1207) with C-terminal His tag (SARS-CoV-2 Omicron XBB.1.5 subvariant)
[4] = molecular target: SARS-CoV-2 Omicron BA.1 RBD (residues 316-526) with C-terminal His tag (SARS-CoV-2 Omicron BA.1 subvariant); experiment: SPR (Biacore S200), CM5 chip, His-tagged proteins, 1:1 model
[5] = molecular target: SARS-CoV-2 Omicron XBB.1.5 RBD (residues 315-525) with C-terminal His tag (SARS-CoV-2 Omicron XBB.1.5 subvariant); experiment: as above

B1: Nanosota-3A, HA- and His-double-tagged (VHH)
VHH: QVQLQESGGGLVQAGGSLRLSCAASGSIFSPNTMGWFRQALGKQREMVAVISSIASTQYANFVKGRFTITRDNTKNTVHLQMNSLIPEDTAVYYCYAVDKSQDYWGQGTQVTVSS
In the case of B1, the EC50 (read off the curve) [1] is reported as 0.1 µg/mL.

B2: Nanosota-3B, HA- and His-double-tagged (VHH)
VHH: QVQLQESGGGLVQAGGSLRLSCAASGSIFSPNTMGWFRQALGKQREMVAFISSIASTSYANFVKGRFTITRDNTKNTVHLQMNSLIPEDTAVYYCYAVDKSQDYWGQGTQVTVSS
B2 showed an EC50 (read off the curve) [1] of 0.02 µg/mL.

B3: Nanosota-3A with C-terminal His tag (VHH)
VHH: QVQLQESGGGLVQAGGSLRLSCAASGSIFSPNTMGWFRQALGKQREMVAVISSIASTQYANFVKGRFTITRDNTKNTVHLQMNSLIPEDTAVYYCYAVDKSQDYWGQGTQVTVSS
B3 gave a Kd [2] of 17.3 nM.

B4: Nanosota-3C with His6 tag and HA tag (VHH)
VHH: QVQLQESGGGLVQAGGSLRLSCAASGSIFSPNTMGWFRQALGKQREGVAFISSIASTSYWLPVKGRFTITRDNTKNTVHLQMNSLIPEDTAVYYCYAVDKSQDYWGQGTQVTVSS
B4 showed an EC50 (read off the curve) [3] of 0.03 µg/mL, a Kd [4] of 27.3 nM and a Kd [5] of 2.04 nM.
